Source: article PMC5443838, “Peripherin-2 and Rom-1 have opposing effects on rod outer segment targeting of retinitis pigmentosa-linked peripherin-2 mutants” (Scientific Reports, 2017)
Several values for one entry are separate records, joined by “and”; a condition that tells them apart may be missing. Equal entries are not always repeated.

B1: citrine- or cerulean-tagged per^WT (FRET construct, HEK293T) (natural protein, human, UniProt P23942 1-346, looked up)
chain: MALLKVKFDQKKRVKLAQGLWLMNWFSVLAGIIIFSLGLFLKIELRKRSDVMNNSESHFVPNSLIGMGVLSCVFNSLAGKICYDALDPAKYARWKPWLKPYLAICVLFNIILFLVALCCFLLRGSLENTLGQGLKNGMKYYRDTDTPGRCFMKKTIDMLQIEFKCCGNNGFRDWFEIQWISNRYLDFSSKEVKDRIKSNVDGRYLVDGVPFSCCNPSSPRPCIQYQITNNSAHYSYDHQTEELNLWVRGCRAALLSYYSSLMNSMGVVTLLIWLFEVTITIGLRYLQTSLDGVSNPEESESESQGWLLERSVPETWKAFLESVKKLGKGNQVEAEGADAGQAPEAG
notes: peripherin-2 (PRPH2), human, wild type; in the 'per^WT only' FRET pair the two copies differ in the fluorophore; also called per^WT only; source: HEK293T, transiently co-transfected, in living cells

What was measured:
[1] = molecular target: T1, citrine- or cerulean-tagged Rom-1 (FRET construct, HEK293T) (human, UniProt Q03395 1-351); experiment: FRET or BRET; 3 cube FRET in living co-transfected HEK293T cells; FRET imaging solution (140 mM NaCl, 5 mM KCl, 2 mM CaCl2, 1 mM MgCl2, 10 mM glucose, 10 mM HEPES, pH 7.4), RT; EAmax from the binding curve of apparent FRET efficiency against the cerulean/citrine molar ratio; settings: partners not purified
T1 construct: Rom-1, homolog of peripherin-2; 'the single human peripherin-2 and Rom-1 transgenes'; source: HEK293T, transiently co-transfected, in living cells

[2] = molecular target: the molecule itself; experiment: as above
[3] = molecular target: the molecule itself; experiment: sucrose density gradient centrifugation; lysate of transfected HEK293T cells (0.5% Triton X-100, 150 mM NaCl, 2 mM CaCl2) on a 5-20% sucrose gradient with 0.1% Triton X-100 and 10 mM N-ethylmaleimide, 46,700 rpm, 2 h, 4 °C; 11 fractions immunoblotted with myc- or flag-specific antibodies under non-reducing conditions; DNA standards for size
[4] = molecular target: B1; experiment: FRET or BRET; 3 cube FRET in living co-transfected HEK293T cells; FRET imaging solution (140 mM NaCl, 5 mM KCl, 2 mM CaCl2, 1 mM MgCl2, 10 mM glucose, 10 mM HEPES, pH 7.4), RT; EAmax from the binding curve of apparent FRET efficiency against the cerulean/citrine molar ratio; settings: partners not purified

T1 sequence (Q03395 whole entry): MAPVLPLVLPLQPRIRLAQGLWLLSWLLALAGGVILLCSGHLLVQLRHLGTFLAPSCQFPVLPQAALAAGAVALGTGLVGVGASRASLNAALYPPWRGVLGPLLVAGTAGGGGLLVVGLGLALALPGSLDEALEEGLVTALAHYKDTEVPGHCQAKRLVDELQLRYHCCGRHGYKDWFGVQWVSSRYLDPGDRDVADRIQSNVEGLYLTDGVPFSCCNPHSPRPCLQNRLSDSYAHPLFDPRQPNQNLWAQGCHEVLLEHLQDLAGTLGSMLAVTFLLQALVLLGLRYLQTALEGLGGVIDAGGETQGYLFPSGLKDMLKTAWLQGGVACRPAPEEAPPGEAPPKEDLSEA

EAmax (maximal FRET efficiency) [1] [%] | EAmax (maximal FRET efficiency) [4] [%] | Binder | EAmax (maximal FRET efficiency) [2] [%] | stoichiometry N [3]
15.6 |  | B1 | 34.2 | 
 |  | C-terminally myc- or flag-tagged per^WT (SDGC construct) (natural protein, human, UniProt P23942 1-346, looked up, peripherin-2 (PRPH2), human, wild type; also called per^WT only; source: HEK293T, transiently transfected, in lysate (0.5% Triton X-100)) MALLKVKFDQKKRVKLAQGLWLMNWFSVLAGIIIFSLGLFLKIELRKRSDVMNNSESHFVPNSLIGMGVLSCVFNSLAGKICYDALDPAKYARWKPWLKPYLAICVLFNIILFLVALCCFLLRGSLENTLGQGLKNGMKYYRDTDTPGRCFMKKTIDMLQIEFKCCGNNGFRDWFEIQWISNRYLDFSSKEVKDRIKSNVDGRYLVDGVPFSCCNPSSPRPCIQYQITNNSAHYSYDHQTEELNLWVRGCRAALLSYYSSLMNSMGVVTLLIWLFEVTITIGLRYLQTSLDGVSNPEESESESQGWLLERSVPETWKAFLESVKKLGKGNQVEAEGADAGQAPEAG |  | 4 and 8
6.58 | 9.44 | citrine- or cerulean-tagged per^P210L (FRET construct, HEK293T) (natural protein, human, UniProt P23942 1-346, looked up, peripherin-2 (PRPH2), human, adRP-linked mutant P210L; in the 'per^P210L only' FRET pair the two copies differ in the fluorophore; also called per^P210L only; per^MT; source: HEK293T, transiently co-transfected, in living cells) MALLKVKFDQKKRVKLAQGLWLMNWFSVLAGIIIFSLGLFLKIELRKRSDVMNNSESHFVPNSLIGMGVLSCVFNSLAGKICYDALDPAKYARWKPWLKPYLAICVLFNIILFLVALCCFLLRGSLENTLGQGLKNGMKYYRDTDTPGRCFMKKTIDMLQIEFKCCGNNGFRDWFEIQWISNRYLDFSSKEVKDRIKSNVDGRYLVDGVLFSCCNPSSPRPCIQYQITNNSAHYSYDHQTEELNLWVRGCRAALLSYYSSLMNSMGVVTLLIWLFEVTITIGLRYLQTSLDGVSNPEESESESQGWLLERSVPETWKAFLESVKKLGKGNQVEAEGADAGQAPEAG | 30.7 | 
 |  | C-terminally myc- or flag-tagged per^C214S (SDGC construct) (natural protein, human, UniProt P23942 1-346, looked up, peripherin-2 (PRPH2), human, adRP-linked mutant C214S; also called per^C214S only; per^MT; source: HEK293T, transiently transfected, in lysate (0.5% Triton X-100)) MALLKVKFDQKKRVKLAQGLWLMNWFSVLAGIIIFSLGLFLKIELRKRSDVMNNSESHFVPNSLIGMGVLSCVFNSLAGKICYDALDPAKYARWKPWLKPYLAICVLFNIILFLVALCCFLLRGSLENTLGQGLKNGMKYYRDTDTPGRCFMKKTIDMLQIEFKCCGNNGFRDWFEIQWISNRYLDFSSKEVKDRIKSNVDGRYLVDGVPFSCSNPSSPRPCIQYQITNNSAHYSYDHQTEELNLWVRGCRAALLSYYSSLMNSMGVVTLLIWLFEVTITIGLRYLQTSLDGVSNPEESESESQGWLLERSVPETWKAFLESVKKLGKGNQVEAEGADAGQAPEAG |  | 2
6.32 | 8.58 | citrine- or cerulean-tagged per^C214S (FRET construct, HEK293T) (natural protein, human, UniProt P23942 1-346, looked up, peripherin-2 (PRPH2), human, adRP-linked mutant C214S; in the 'per^C214S only' FRET pair the two copies differ in the fluorophore; also called per^C214S only; per^MT; source: HEK293T, transiently co-transfected, in living cells) MALLKVKFDQKKRVKLAQGLWLMNWFSVLAGIIIFSLGLFLKIELRKRSDVMNNSESHFVPNSLIGMGVLSCVFNSLAGKICYDALDPAKYARWKPWLKPYLAICVLFNIILFLVALCCFLLRGSLENTLGQGLKNGMKYYRDTDTPGRCFMKKTIDMLQIEFKCCGNNGFRDWFEIQWISNRYLDFSSKEVKDRIKSNVDGRYLVDGVPFSCSNPSSPRPCIQYQITNNSAHYSYDHQTEELNLWVRGCRAALLSYYSSLMNSMGVVTLLIWLFEVTITIGLRYLQTSLDGVSNPEESESESQGWLLERSVPETWKAFLESVKKLGKGNQVEAEGADAGQAPEAG | 26.5 | 
